Here are results for one molecule from paper PMC12720113, “The binding mechanism of a novel ferrous ion chelating peptide from chicken blood hemoglobin and the bioavailability of the chelate” (Food Chemistry: X, 2025).

For this series, the system named is Caco-2 cells. Description: Caco-2 cell viability assay (MTT). Format: cell-based. The settings on record: 24 h, 490 nm, means ± SEM. The method, then:
Caco-2 cell viability assay was conducted on […]-Fe according to the method of [Wu et al. (2019)]. And lactoferrin was chosen as an experimental control. When the cell fusion rate was close to 80 %, the cells were dissociated and passaged using the trypsin-EDTA mixed digest. Cultivate the 23rd generation of cells in the logarithmic growth phase at 37 °C and 5 % CO₂ for 24 h. Then, a gradient concentration of […]-Fe and Ac-[…]-Fe was added to the wells of the experimental group, and all the samples were incubated for 24 h. After incubation, 20 μL of MTT reagent was added to each well. After 2 h of reaction, 150 μL of DMSO was added and agitated for 10 min. The absorbance values at 490 nm were measured to reflect cell activity levels. Cell relative activity (%) was calculated:(3) Relative cell viability%=As−Ab/Ac−Ab×100 where: As represents the absorbance value of the sample treatment, Ab represents the absorbance value without cells, and Ac represents the absorbance value without sample treatment.

B1: lactoferrin (protein, UniProt P24627 20-708, looked up)
Lactotransferrin: APRKNVRWCTISQPEWFKCRRWQWRMKKLGAPSITCVRRAFALECIRAIAEKKADAVTLDGGMVFEAGRDPYKLRPVAAEIYGTKESPQTHYYAVAVVKKGSNFQLDQLQGRKSCHTGLGRSAGWIIPMGILRPYLSWTESLEPLQGAVAKFFSASCVPCIDRQAYPNLCQLCKGEGENQCACSSREPYFGYSGAFKCLQDGAGDVAFVKETTVFENLPEKADRDQYELLCLNNSRAPVDAFKECHLAQVPSHAVVARSVDGKEDLIWKLLSKAQEKFGKNKSRSFQLFGSPPGQRDLLFKDSALGFLRIPSKVDSALYLGSRYLTTLKNLRETAEEVKARYTRVVWCAVGPEEQKKCQQWSQQSGQNVTCATASTTDDCIVLVLKGEADALNLDGGYIYTAGKCGLVPVLAENRKSSKHSSLDCVLRPTEGYLAVAVVKKANEGLTWNSLKDKKSCHTAVDRTAGWNIPMGLIVNQTGSCAFDEFFSQSCAPGADPKSRLCALCAGDDQGLDKCVPNSKEKYYGYTGAFRCLAEDVGDVAFVKNDTVWENTNGESTADWAKNLNREDFRLLCLDGTRKPVTEAQSCHLAVAPNHAVVSRSDRAAHVKQVLLHQQALFGKNGKNCPDKFCLFKSETKNLLFNDNTECLAKLGGRPTYEEYLGTEYVTAIANLKKCSTSPLLEACAFLTR
notes: conventional iron supplement, experimental control
As for B1, the “Relative vitality of cells (%)” value runs as follows: (Caco-2, 0.125 mg/mL) 92.86 ± 1.03%; (Caco-2, 0.25 mg/mL) 81.43 ± 0.94%; (Caco-2, 0.5 mg/mL) 77.76 ± 1.27%; (Caco-2, 1 mg/mL) 74.83 ± 0.84%; (Caco-2, 2 mg/mL) 66.90 ± 1.42%.
